Data taken from patent US20180333502A1 (published 2018).
Changes are numbered by the printed parent chain. In names and notes the source's numbering stands.

B1: anti-GITR-IgG2 (antibody)
heavy: QVQLVESGGGVVQPGRSLRLSCAASGFTFSSYGMHWVRQAPGKGLEWVAVIWYEGSNKYYADSVKGRFTISRDNSKNTLYLQMNSLRAEDTAVYYCARGGSMVRGDYYYGMDVWGQGTTVTVSSASTKGPSVFPLAPCSRSTSESTAALGCLVKDYFPEPVTVSWNSGALTSGVHTFPAVLQSSGLYSLSSVVTVPSSNFGTQTYTCNVDHKPSNTKVDKTVERKCCVECPPCPAPPVAGPSVFLFPPKPKDTLMISRTPEVTCVVVDVSHEDPEVQFNWYVDGVEVHNAKTKPREEQFNSTFRVVSVLTVVHQDWLNGKEYKCKVSNKGLPAPIEKTISKTKGQPREPQVYTLPPSREEMTKNQVSLTCLVKGFYPSDIAVEWESNGQPENNYKTTPPMLDSDGSFFLYSKLTVDKSRWQQGNVFSCSVMHEALHNHYTQKSLSLSPGK
light: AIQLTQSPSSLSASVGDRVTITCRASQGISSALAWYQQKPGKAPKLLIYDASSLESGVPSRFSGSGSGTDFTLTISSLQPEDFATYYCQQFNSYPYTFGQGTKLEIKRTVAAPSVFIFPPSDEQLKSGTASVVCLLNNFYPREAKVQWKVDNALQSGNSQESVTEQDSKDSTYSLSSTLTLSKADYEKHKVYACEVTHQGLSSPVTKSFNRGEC
B2: 11F11 (antibody, human IgG2, kappa, V domains shown)
VH: QVQLVESGGGVVQPGRSLRLSCATSGFTFSNYGMHWVRQAPGKGLEWVAVILYDGSNKYYPDSVKGRFTISRDNSKNTLYLQMNSLRAEDTAVYYCARGGSSWYPDSFDIWGQGTMVTVSS
VL: DIQMTQSPSSLSASVGDRVTITCRASQGISSWLAWYQQKPEKAPKSLIYAASSLQSGVPSRFSGSGSGTDFTLTISSLQPEDFATYYCQQYNSYPLTFGGGTKVEIKR
B3: CD73.4-IgG2.3G1.1f-KH (antibody)
heavy: QVQLVESGGGVVQPGRSLRLSCAASGFTFSNYGMHWVRQAPGKGLEWVAVILYDGSNKYYPDSVKGRFTISRDNSKNTLYLQMNSLRAEDTAVYYCARGGSSWYPDSFDIWGQGTMVTVSSASTKGPSVFPLAPCSRSTSESTAALGCLVKDYFPEPVTVSWNSGALTSGVHTFPAVLQSSGLYSLSSVVTVPSSNFGTQTYTCNVDHKPSNTKVDKTVERKSCVECPPCPAPPVAGPSVFLFPPKPKDTLMISRTPEVTCVVVDVSHEDPEVKFNWYVDGVEVHNAKTKPREEQYNSTYRVVSVLTVLHQDWLNGKEYKCKVSNKALPSSIEKTISKAKGQPREPQVYTLPPSREEMTKNQVSLTCLVKGFYPSDIAVEWESNGQPENNYKTTPPVLDSDGSFFLYSKLTVDKSRWQQGNVFSCSVMHEALHNHYTQKSLSLSPGK
light: not shown
B4: CD73.10-IgG2-C219S (antibody)
heavy: QVQLVESGGGVVQPGRSLRLSCAASGFTFSNYGMHWVRQAPGKGLEWVAVIWYDESNKYYPDSVKGRFTISRDNSKNTLYLQMNSLRAEDTAVYYCARGGSSWYPDSFDIWGQGTMVTVSSASTKGPSVFPLAPCSRSTSESTAALGCLVKDYFPEPVTVSWNSGALTSGVHTFPAVLQSSGLYSLSSVVTVPSSNFGTQTYTCNVDHKPSNTKVDKTVERKSCVECPPCPAPPVAGPSVFLFPPKPKDTLMISRTPEVTCVVVDVSHEDPEVQFNWYVDGVEVHNAKTKPREEQFNSTFRVVSVLTVVHQDWLNGKEYKCKVSNKGLPAPIEKTISKTKGQPREPQVYTLPPSREEMTKNQVSLTCLVKGFYPSDIAVEWESNGQPENNYKTTPPMLDSDGSFFLYSKLTVDKSRWQQGNVFSCSVMHEALHNHYTQKSLSLSPG
light: not shown
B5: CD73.10-IgG2-C219S-IgG1.1 (antibody)
heavy: B4 heavy with Q274K, F296Y, F300Y, V309L, G327A, A330S, P331S, T339A
light: not shown

Columns and labels:
[1] = target: T1, human GITR on cells (activated human T cells; 3A9-hGITR cells) (human, UniProt Q9Y5U5 26-241); test: cell-based or functional assay
T1 sequence (looked up): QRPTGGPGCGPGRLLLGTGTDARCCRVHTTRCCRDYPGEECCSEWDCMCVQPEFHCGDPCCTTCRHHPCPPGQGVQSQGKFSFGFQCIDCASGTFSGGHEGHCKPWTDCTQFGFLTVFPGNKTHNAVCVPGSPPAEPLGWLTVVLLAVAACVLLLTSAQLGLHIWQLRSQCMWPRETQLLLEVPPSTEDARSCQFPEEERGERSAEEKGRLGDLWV

[2] = target: T2, human CD73 on Calu6 cells (human, UniProt P21589 27-549); test: cell-based or functional assay
T2 sequence (looked up): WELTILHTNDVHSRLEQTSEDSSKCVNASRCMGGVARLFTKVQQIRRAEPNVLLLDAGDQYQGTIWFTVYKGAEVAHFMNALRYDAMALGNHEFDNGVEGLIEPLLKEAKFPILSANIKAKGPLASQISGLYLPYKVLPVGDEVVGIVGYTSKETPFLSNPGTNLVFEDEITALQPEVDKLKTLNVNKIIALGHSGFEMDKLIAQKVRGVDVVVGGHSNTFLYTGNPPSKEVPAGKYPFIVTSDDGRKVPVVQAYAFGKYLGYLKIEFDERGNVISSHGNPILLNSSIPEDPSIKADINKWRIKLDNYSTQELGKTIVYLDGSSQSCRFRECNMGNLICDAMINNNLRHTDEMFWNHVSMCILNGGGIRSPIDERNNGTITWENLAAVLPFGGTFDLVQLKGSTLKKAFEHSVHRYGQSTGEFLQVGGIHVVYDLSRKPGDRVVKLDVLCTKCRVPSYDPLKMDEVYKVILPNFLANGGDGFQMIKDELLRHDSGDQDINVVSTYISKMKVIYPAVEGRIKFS

| Binder | Emax (%), phospho-p65 NFkB signaling, CD4+ T cells [1] | Emax (%), phospho-p65 NFkB signaling, CD8+ T cells [1] | Ymax, CD73 internalization, Calu6 cells, 2 h [2] |
| --- | --- | --- | --- |
| B1 | 69 % of GITR.6.G2.G1f | 85 % of GITR.6.G2.G1f |  |
| B2 |  |  | 98 % of 100 nM 11F11 |
| B3 |  |  | 97 % of 100 nM 11F11 |
| B4 |  |  | 99 % of 100 nM 11F11 |
| B5 |  |  | 99 % of 100 nM 11F11 |
